This passage reports cumulative blood concentration results from patent EP4721730A1, “PHARMACEUTICAL COMPOSITION COMPRISING SUSTAINED-RELEASE MICROSPHERE COMPRISING CAGRILINTIDE OR PHARMACEUTICALLY ACCEPTABLE SALT THEREOF AND PREPARATION METHOD THEREFOR” (G2GBIO, Inc., priority 2023, dated 2024).

A short description of this data set: Pharmacokinetics of a single-dose subcutaneous administration using SD rats (concentration of cagrilintide in blood). It is filed as in vivo. The following applies: s.c. 1.2 mg/head. On the procedure: In order to evaluate a potential of the microsphere according to the present invention as a sustained-release therapeutic agent, the concentration of the cagrilintide in rat blood was measured by the following method.
Specifically, the microsphere was measured so that a dosage of the cagrilintide becomes 1.2 mg/head (API raw material solution, Example 5-6) or 3.6 mg/head (Comparative Examples 1 to 2, Examples 1-1 to 1-3, Example 5-1), dispersed in 0.5 mL of a suspension, and then subcutaneously injected into SD rats. 0.25 to 0.5 mL of blood was collected at prescheduled times and the concentration of the cagrilintide in blood was measured using HPLC.

On to “cagrilintide [API raw material solution]”, for which the cumulative blood concentration by setting is: (day 0, cagrilintide) 0.0%; (day 0.042, cagrilintide) 0.2%; (day 0.250, cagrilintide) 4.5%; (day 1, cagrilintide) 35.2%; (day 4, cagrilintide) 91.1%; (day 7, cagrilintide) 100.0%.
